# Measurements published in patent US20250002876.
# Legend:
# Test in all cases: cell_activity
# [1] = system: ZnF-MLT transposase fusion, covalent linker (Myotis lucifugus); conditions: amplicon-seq
# [2] = system: ZnF-MLT transposase, non-covalent linker (Myotis lucifugus); conditions: HEK293 landing pad, amplicon-seq
# [3] = system: MLT K350A/D416A S8P,C13R,K350A,D416A (Myotis lucifugus); conditions: HEK293; integration >=10% GFP
# [4] = system: MLT K350A S8P,C13R,K350A (Myotis lucifugus); conditions: HEK293; integration >=10% GFP
Substance,"activity (% of reads on target) ([1]; HEK293 plasmid landing pad, TTAA 15 bp from site)",activity (% of reads on target) [2],activity (% of reads on target) ([1]; HEK293 landing pad),activity (% GFP excision) [3],activity (% GFP excision) [4]
"CTCCACTGTGGGGTGCCGCAGTGGAGATGACTTGTTTGTTAACGGCACTTTAACAG (double strand) [Landing pad, ZnF sites on both sides of TTAA]",42,29,–,–,–
"Landing pad, single ZnF site next to TTAA",–,12,24,–,–
TTAACACTTGGATTGCGGGAAACGAGTTAAGTCGGCTCGCGTGAATTGCGCGTACTCCGCGGGAGCCGTCTTAACTCGGTTCATATAGATTTGCGGTGGAGTGCGGGAAACGTGTAAACTCGGGCCGATTGTAACTGCGTATTACCAAATATTTGTT / AATTATTTATGTACTGAATAGATAAAAAAATGTCTGTGATTGAATAAATTTTCATTTTTTACACAAGAAACCGAAAATTTCATTTCAATCGAACCCATACTTCAAAAGATATAGGCATTTTAAACTAACTCTGATTTTGCGCGGGAAACCTAAATAATTGCCCGCGCCATCTTATATTTTGGCGGGAAATTCACCCGACACCGTAGTGTTAA [MLT donor left and right ITRs],–,–,–,> 20,> 20
